The values that follow come from paper doi:10.1101/2023.08.17.553727.

The target in the assay is B’β-GFP (Arabidopsis thaliana) (UniProt O04376). The assay can be described thus: co-IP.
Chain of UniProt O04376 (O04376 whole entry): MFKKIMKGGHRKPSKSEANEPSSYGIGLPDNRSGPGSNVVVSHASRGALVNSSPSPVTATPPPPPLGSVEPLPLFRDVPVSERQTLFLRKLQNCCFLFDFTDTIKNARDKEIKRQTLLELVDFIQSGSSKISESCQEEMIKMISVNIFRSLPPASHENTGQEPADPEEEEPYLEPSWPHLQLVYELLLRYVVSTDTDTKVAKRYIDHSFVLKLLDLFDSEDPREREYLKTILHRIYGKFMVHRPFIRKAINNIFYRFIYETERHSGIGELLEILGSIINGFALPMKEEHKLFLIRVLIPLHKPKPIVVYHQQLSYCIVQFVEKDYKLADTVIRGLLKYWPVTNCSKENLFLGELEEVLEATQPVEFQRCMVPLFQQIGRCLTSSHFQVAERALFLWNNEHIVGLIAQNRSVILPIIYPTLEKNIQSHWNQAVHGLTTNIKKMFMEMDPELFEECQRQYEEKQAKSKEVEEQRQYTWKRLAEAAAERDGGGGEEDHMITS

“PP2A C subunit (from UniProt Q07099 1-306) (enzyme)”: the binding ability to the C subunit relative to YFP-B’β (fold of YFP-B’β) is 0.33.
